Experiments:
[1] = target: T1, human CD154 tagged with the LPETG sequence at its C terminus (human, UniProt P29965 1-261); experiment: cell-based or functional assay
T1 sequence: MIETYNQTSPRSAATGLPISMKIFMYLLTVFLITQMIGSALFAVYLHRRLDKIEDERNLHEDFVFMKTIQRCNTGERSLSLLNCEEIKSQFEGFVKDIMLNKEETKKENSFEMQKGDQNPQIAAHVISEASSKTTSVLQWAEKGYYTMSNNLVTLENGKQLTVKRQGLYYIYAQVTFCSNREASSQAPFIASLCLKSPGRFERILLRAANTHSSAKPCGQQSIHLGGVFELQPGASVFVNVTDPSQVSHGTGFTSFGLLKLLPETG

[2] = target: T2, Abz-LPETGK(Dnp)-CONH2
T2 chain: LPETGK

[3] = target: T3, Gly-Gly-Gly-COOH (GGG)
T3 chain: GGG

[4] = target: T4, LPETG (SEQ ID NO: 32) substrate
T4 chain: LPETG

[5] = target: LPESG (SEQ ID NO: 38) substrate

B1: wild type S. aureus sortase A (enzyme)
chain: MQAKPQIPKDKSKVAGYIEIPDADIKEPVYPGPATPEQLNRGVSFAEENESLDDQNISIAGHTFIDRPNYQFTNLKAAKKGSMVYFKVGNETRKYKMTSIRDVKPTDVEVLDEQKGKDKQLTLITCDDYNEKTGVWEKRKIFVATEVKLEHHHHHH
fluorescence of live HeLa cells labeled with GGGYK-biotin over background without enzyme, flow cytometry [1]: ≤ 2.8 fold
kcat/Km LPETG [2]: 200 M⁻¹ s⁻¹

B2: P94S/D165A (clone 4.3) (protein)
chain: MQAKPQIPKDKSKVAGYIEIPDADIKEPVYPGPATSEQLNRGVSFAEENESLDDQNISIAGHTFIDRPNYQFTNLKAAKKGSMVYFKVGNETRKYKMTSIRDVKPTAVEVLDEQKGKDKQLTLITCDDYNEKTGVWEKRKIFVATEVKLEHHHHHH
fold enhancement in catalytic efficiency compared to wild type [2]: an approximately 15-fold enhancement in catalytic efficiency at using the LPETG (SEQ ID NO: 32) substrate
fold reduction in Km LPETG compared to wild type [2]: a 5-7-fold reduction in Km LPETG
kcat/Km LPETG [2]: 2600 ± 100 M⁻¹ s⁻¹

B3: srtA K196T (protein)
chain: MQAKPQIPKDKSKVAGYIEIPDADIKEPVYPGPATPEQLNRGVSFAEENESLDDQNISIAGHTFIDRPNYQFTNLKAAKKGSMVYFKVGNETRKYKMTSIRDVKPTDVEVLDEQKGKDKQLTLITCDDYNEKTGVWETRKIFVATEVKLEHHHHHH
kcat/Km LPETG [2]: 400 M⁻¹ s⁻¹

B4: P94R/D160N/D165A/K190E/K196T srtA (protein)
chain: MQAKPQIPKDKSKVAGYIEIPDADIKEPVYPGPATREQLNRGVSFAEENESLDDQNISIAGHTFIDRPNYQFTNLKAAKKGSMVYFKVGNETRKYKMTSIRNVKPTAVEVLDEQKGKDKQLTLITCDDYNEETGVWETRKIFVATEVKLEHHHHHH
Km LPETG (fit of the one-hour time course, FIG. 16) [2]: Km LPETG=245±5 µM
fold change in KM LPETG compared to the tetramutant [2]: the kcat and KM LPETG were not altered by more than a factor of 1.3-fold
fold higher kcat/KM LPETG compared with wild type srtA [2]: a 120-fold higher kcat/KM LPETG
kcat/Km LPETG [2]: 23000 ± 3000 M⁻¹ s⁻¹
fold higher Km GGG compared with wild type srtA [3]: a 20-fold higher Km GGG
fold improvement in Km GGG compared to the tetramutant [3]: the Km GGG of this mutant improved by 1.8-fold

B5: srtA D165A (protein)
chain: MQAKPQIPKDKSKVAGYIEIPDADIKEPVYPGPATPEQLNRGVSFAEENESLDDQNISIAGHTFIDRPNYQFTNLKAAKKGSMVYFKVGNETRKYKMTSIRDVKPTAVEVLDEQKGKDKQLTLITCDDYNEKTGVWEKRKIFVATEVKLEHHHHHH
kcat/Km LPETG [2]: 700 M⁻¹ s⁻¹

B6: P94S/D160N/D165A/K196T sortase A (protein)
chain: MQAKPQIPKDKSKVAGYIEIPDADIKEPVYPGPATSEQLNRGVSFAEENESLDDQNISIAGHTFIDRPNYQFTNLKAAKKGSMVYFKVGNETRKYKMTSIRNVKPTAVEVLDEQKGKDKQLTLITCDDYNEKTGVWETRKIFVATEVKLEHHHHHH
fold decrease in KM LPETG compared to wild type [2]: The 50-fold decrease in KM LPETG of the tetramutant compared to wild type
fold improved LPETG recognition compared to wild type [2]: 45-fold improved LPETG (SEQ ID NO: 32) recognition
fold improvement in kcat/Km LPETG compared to wild type [2]: a 140-fold improvement in its ability to convert LPETG (SEQ ID NO: 32) (kcat/Km LPETG)
kcat/Km LPETG [2]: 28000 ± 7000 M⁻¹ s⁻¹
fold increase in Km GGG compared to wild type [3]: a 30-fold increase in Km GGG for the sortase A tetramutant

B7: P94S/D160N/K196T srtA (enzyme)
chain: MQAKPQIPKDKSKVAGYIEIPDADIKEPVYPGPATSEQLNRGVSFAEENESLDDQNISIAGHTFIDRPNYQFTNLKAAKKGSMVYFKVGNETRKYKMTSIRNVKPTDVEVLDEQKGKDKQLTLITCDDYNEKTGVWETRKIFVATEVKLEHHHHHH
median fluorescence (streptavidin-AlexaFluor594) of live HeLa cells labeled with GGGYK-biotin, flow cytometry [1]: ≥ 30 fold
fold increase in KM LPETG compared to the tetramutant [2]: 3 fold
kcat/Km LPETG [2]: 8600 ± 1500 M⁻¹ s⁻¹
fold improvement in Km GGG compared to the tetramutant [3]: a 2.6-fold improvement in Km GGG

B8: srtA D160N (protein)
chain: MQAKPQIPKDKSKVAGYIEIPDADIKEPVYPGPATPEQLNRGVSFAEENESLDDQNISIAGHTFIDRPNYQFTNLKAAKKGSMVYFKVGNETRKYKMTSIRNVKPTDVEVLDEQKGKDKQLTLITCDDYNEKTGVWEKRKIFVATEVKLEHHHHHH
kcat/Km LPETG [2]: 600 M⁻¹ s⁻¹

B9: srtA P94S (protein)
chain: MQAKPQIPKDKSKVAGYIEIPDADIKEPVYPGPATSEQLNRGVSFAEENESLDDQNISIAGHTFIDRPNYQFTNLKAAKKGSMVYFKVGNETRKYKMTSIRDVKPTDVEVLDEQKGKDKQLTLITCDDYNEKTGVWEKRKIFVATEVKLEHHHHHH
kcat/Km LPETG [2]: 600 M⁻¹ s⁻¹

B10: D160N/K190E/K196T (clone 4.2) (protein)
chain: MQAKPQIPKDKSKVAGYIEIPDADIKEPVYPGPATPEQLNRGVSFAEENESLDDQNISIAGHTFIDRPNYQFTNLKAAKKGSMVYFKVGNETRKYKMTSIRNVKPTDVEVLDEQKGKDKQLTLITCDDYNEETGVWETRKIFVATEVKLEHHHHHH
fold enhancement in catalytic efficiency compared to wild type [2]: an approximately 15-fold enhancement in catalytic efficiency at using the LPETG (SEQ ID NO: 32) substrate
fold reduction in Km LPETG compared to wild type [2]: a 5-7-fold reduction in Km LPETG
kcat/Km LPETG [2]: 2400 ± 700 M⁻¹ s⁻¹

B11: P94S/D160N/D165A sortase A (protein)
chain: MQAKPQIPKDKSKVAGYIEIPDADIKEPVYPGPATSEQLNRGVSFAEENESLDDQNISIAGHTFIDRPNYQFTNLKAAKKGSMVYFKVGNETRKYKMTSIRNVKPTAVEVLDEQKGKDKQLTLITCDDYNEKTGVWEKRKIFVATEVKLEHHHHHH
fold change in KM LPETG compared to the tetramutant [2]: KM LPETG were not altered by more than a factor of 3-fold
kcat/Km LPETG [2]: 7500 ± 300 M⁻¹ s⁻¹
fold improvement in Km GGG compared to the tetramutant [3]: the Km GGG of this mutant improved by 2.7-fold

B12: Sortase 4S.4 (protein)
chain: QAKPQIPKDKSKVAGYIEIPDADIKELVYPGPATREQLSRGVSFTEENESLDDQNISITGHTSIGRPSYQFTNLRAAKKGSMVYFKVGNETRKYKMTSIRNVKPTAVEVLDEQEGKDEQLTLITCDDYNEETGVWETRKIFVATEVK
activity against LPETG [4]: completely abrogated activity against LPETG (SEQ ID NO: 32)
activity against LPESG [5]: activity against LPESG (SEQ ID NO: 38) comparable to the starting type pentamutant
altered substrate specificity, LPESG against LPETG, as determined by Kcat/Km (HPLC-based substrate cleavage assay) [5]: remarkably altered substrate specificity (>4000-fold, as determined by Kcat/Km)

B13: optimized variant 4S.12.2 (protein)
chain: QAKPQIPKDKSKVAGYIEIPDADIKEPVYPGPATREQLSRGVSFTEENESLDDQNISITGHTSIGRPNYQFTNLRAAKKGSMVYFKVGNETRKYKMTSIRNVKPTAVEVLDEQEGKDEQLTLITCDDYNEETGVWETRKIFVATEVK
activity against LPETG [4]: completely abrogated activity against LPETG (SEQ ID NO: 32)
activity against LPESG [5]: activity against LPESG (SEQ ID NO: 38) comparable to the starting type pentamutant

From patent US20140057317A1 (Harvard, published 2014)
